These are literature values, as cited in publication PMC5758107.

pKd: −log10 of the molar value. Values joined by “and” are separate entries in the source; they are usually repeats but may differ in a detail not shown here. Equal values may be shown once.

The data set has as its target Foc ribosome-nascent chain complex (Escherichia coli) (UniProt P68699). The data set is described as follows: fluorescence correlation spectroscopy.
Sequence of UniProt P68699 (P68699 whole entry, one chain of several): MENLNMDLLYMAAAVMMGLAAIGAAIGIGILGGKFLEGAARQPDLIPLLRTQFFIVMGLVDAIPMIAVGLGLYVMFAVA

Take YidC (from UniProt P25714): the pKd is 6.68 and 7.07.
